{"source": "paper PMC3201880", "about": "(Nucleic Acids Research, 2011)", "key": {"[1]": {"target": "the molecule itself", "assay": "cross-linking"}, "[2]": {"target": "T1, TnpA-His6 (IS608 transposase) (Helicobacter pylori (IS608), UniProt Q933Z0 1-155)", "T1 sequence": "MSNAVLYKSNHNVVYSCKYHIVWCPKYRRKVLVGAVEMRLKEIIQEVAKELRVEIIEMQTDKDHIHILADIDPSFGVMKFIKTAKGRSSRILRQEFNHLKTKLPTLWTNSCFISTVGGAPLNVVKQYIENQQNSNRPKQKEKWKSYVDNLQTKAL", "assay": "EMSA"}, "[3]": {"target": "T1, TnpA-His6 (IS608 transposase)", "assay": "EMSA", "remark": "listed apart in the source"}, "[4]": {"target": "T1, TnpA-His6 (IS608 transposase)", "assay": "EMSA", "remark": "listed apart in the source"}}, "note": "Read-outs that look alike come from different tables or passages of the source."}
{"binder": "TnpA-His6 (transposase of IS608) (enzyme, Helicobacter pylori, UniProt Q933Z0 1-155, looked up) MSNAVLYKSNHNVVYSCKYHIVWCPKYRRKVLVGAVEMRLKEIIQEVAKELRVEIIEMQTDKDHIHILADIDPSFGVMKFIKTAKGRSSRILRQEFNHLKTKLPTLWTNSCFISTVGGAPLNVVKQYIENQQNSNRPKQKEKWKSYVDNLQTKAL", "values": [{"measurement": "stoichiometry N", "setting": "[1]", "value": 2}]}
{"binder": "LE80 (ssDNA) DNA: CGCTAGTGCAAAAATTACCAAAACTAACGCCTTAAAGCCCCTAGCTTTTAGCTATGGGGATACAAGGCGAAACGCCTTTA", "values": [{"measurement": "binding result", "setting": "[2]", "value": "binds"}]}
{"binder": "RE70 (ssDNA) DNA: TTCCTCATGCTTTAGCTAGAATCCCCTAGCTTTAGCTATGGGGAGTATGTCAACAAATTTGCCTAATGAC", "values": [{"measurement": "binding result", "setting": "[2]", "value": "binds"}]}
{"binder": "GAATCCCCTAGCTTTAGCTATGGGGAGTATGTCAACAAATTTGCC (ssDNA)", "note": "[RE45]", "values": [{"measurement": "binding result", "setting": "[3]", "value": "binds"}]}
{"binder": "GCTTTAGCTAGAATCCCCTAGCTTTAGCTATGGGGAGTATGTCAATTCG (ssDNA)", "note": "[RE49]", "values": [{"measurement": "binding result", "setting": "[4]", "value": "binds"}]}
{"binder": "RE56 (ssDNA) DNA: CTCATGCTTTAGCTAGAATCCCCTAGCTTTAGCTATGGGGAGTATGTCAACAAATT", "values": [{"measurement": "binding result", "setting": "[3]", "value": "binds"}]}
{"binder": "GCTTTAGCTAGAATCCCCTAGCTTTAGCTATGGGGAGTATGTCAA (ssDNA)", "note": "[RE45_pc (precleaved)]", "values": [{"measurement": "binding result", "setting": "[3]", "value": "binds"}]}
